Literature values as cited in US20220033450A1, “VIRALLY EXPRESSED INHIBITORS OF PDZ DOMAINS, SUCH AS PICK1 AND USES THEREOF” (University of Copenhagen, priority 2018, published 2022).

Target: T1, PDZ3 of PSD-95 (Homo sapiens, UniProt P78352)
T1 construct: specificity towards PDZ3 over PDZ 1 and 2 in PSD-95 (Toto et al. 2016)
Details: Toto et al. 2016; 'supposedly'

T1 sequence (P78352 313-393 limits assumed): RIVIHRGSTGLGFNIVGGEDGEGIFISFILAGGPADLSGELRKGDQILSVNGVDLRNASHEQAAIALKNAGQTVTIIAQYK

YKQTSV
specificity towards PDZ3 over PDZ 1 and 2 in PSD-95: > 15 fold
